The text below walks through data of patent publication US20160009812A1 (University of Texas, published 2016).

Experiment [1] deals with T1, total (intracellular) vimentin of human cancer cells (human, UniProt P08670 2-466).
T1 construct: Endogenous protein in lysates or in permeabilized cells; also called total vimentin; cytoplasmic vimentin
In words: confocal microscopy, intracellular staining.

The target in experiment [2] is T2, cell-surface vimentin on mouse cancer cells (LM8) (mouse, UniProt P20152 2-466).
T2 construct: whole, on cells; also called CSV
In words: immunofluorescence staining of mouse LM8 cells spiked into blood. The protocol: FIG. 2B: Detection of single cell spiked into blood using fluorescence microscopy. Single LM8 cell was isolated using serial dilution and spot analysis and spiked into 1 ml of blood. After RBC lysis, mononucleated cell population was stained for 84-1 mAb and AlexaFluor-488 secondary antibody to detect CSV positive cells. […] FIG. 2C: Isolation of single cell from whole blood. Single cell spiked into whole blood was isolated using EasySep based 84-1 positive and CD45 negative selection. This single cell was observable on the culture dish 2 hr after incubation at 37° C. FIG. 2D: Micrographs of cells isolated from blood were costained using antibodies against CSV, CD45 and a nuclear stain DRAQ5. Scale indicates 10 μm. FIG. 2E: Enumeration of CSV positive CTCs from healthy, primary and metastatic patient blood specimens. Blood from the primary cancer patients was used to select threshold of detection (dashed line).
Based on the detection of CSV in a range of cancer cell lines of both epithelial and non-epithelial origin, the inventors hypothesized that it could serve as a biomarker to detect CTC. […] From micrographs it is evident that single cell is detectable in whole blood utilizing fluorescence microscopy (FIG. 2B). […] The inventors further evaluated the sensitivity and specificity of 84-1 antibody using HLM3 and LM7 cells that are positive for 84-1 staining (Table 5).

The target in experiment [3] is T3, cell-surface vimentin on canine circulating tumor cells (canine, UniProt A0A8C0N8E3 2-466).
T3 construct: also called CSV
The experiment in a line: isolation and confocal microscopy of CTC from canine blood.

Experiment [4] addresses T4, cell-surface vimentin (CSV) on human cancer cells (human, UniProt P08670 2-466).
T4 construct: whole, on cells; Endogenous vimentin on the surface of non-permeabilized cancer cells
The experiment in a line: screening on osteosarcoma cell lines with and without vimentin on the cell surface.

Experiment [5] addresses vimentin-derived peptides (10, 12 and 15 aa peptides on the peptide microarray). The experiment in a line: peptide microarray; 84-1 at 0.2 ug/mL compared with 12-1 at 1 ug/mL.

T2 sequence (P20152 2-466): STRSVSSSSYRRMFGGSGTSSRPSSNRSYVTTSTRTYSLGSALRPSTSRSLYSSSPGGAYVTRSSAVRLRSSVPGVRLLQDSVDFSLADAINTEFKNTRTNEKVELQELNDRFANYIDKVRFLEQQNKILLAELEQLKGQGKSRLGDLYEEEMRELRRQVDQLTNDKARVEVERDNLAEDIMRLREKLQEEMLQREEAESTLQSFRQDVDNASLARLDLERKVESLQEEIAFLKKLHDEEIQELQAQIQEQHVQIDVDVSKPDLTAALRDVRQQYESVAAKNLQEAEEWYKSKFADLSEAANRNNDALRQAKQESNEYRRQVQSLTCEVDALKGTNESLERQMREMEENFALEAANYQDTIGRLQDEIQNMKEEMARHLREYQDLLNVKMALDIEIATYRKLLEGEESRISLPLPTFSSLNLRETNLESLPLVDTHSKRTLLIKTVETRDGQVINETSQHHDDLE
T4 sequence (P08670 2-466): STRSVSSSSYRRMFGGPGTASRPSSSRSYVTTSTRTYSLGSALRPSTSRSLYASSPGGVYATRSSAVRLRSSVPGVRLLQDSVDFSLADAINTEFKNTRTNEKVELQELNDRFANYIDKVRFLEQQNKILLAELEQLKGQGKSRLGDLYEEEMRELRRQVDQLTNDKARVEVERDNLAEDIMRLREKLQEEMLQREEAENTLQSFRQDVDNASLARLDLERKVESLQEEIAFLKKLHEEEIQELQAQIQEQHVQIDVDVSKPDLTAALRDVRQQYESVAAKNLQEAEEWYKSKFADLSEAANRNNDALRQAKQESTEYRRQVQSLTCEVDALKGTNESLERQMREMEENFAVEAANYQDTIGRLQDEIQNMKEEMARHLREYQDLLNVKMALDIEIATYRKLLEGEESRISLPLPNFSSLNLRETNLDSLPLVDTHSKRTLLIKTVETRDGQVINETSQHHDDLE
T1 sequence (P08670 2-466 limits assumed): as the sequence (P08670 2-466) above
T3 sequence (A0A8C0N8E3 2-466 limits assumed): as the sequence (P08670 2-466) above, with A20G, S26T, V59A, N200S, E238D, E250D, V257M, T316N, S411A counted along it

B1: 84-1 monoclonal antibody (antibody, V domains shown)
VH: QVQLKQSGPGLVQPSQSLSITCTVSGFSLTRYGVHWVRQSPGKGLEWLGVIWSGGSTDYNAAFISRLSFSKDNSKSQVFFKMNSLQANDTAIYYCARRSYYYAMDYWGQGTSVTVS
VL: DVLMTQTPLSLPVSLGDQASISCRSSQSIVHRIGNTYLEWYLQKPGQSPKLLIYKVSNRFSGVPDRFSGSGSGTDFTLKISRVEAEDLGVYYCFQGSHVPLTFGAGTKLEL
notes: Mouse monoclonal antibody from hybridoma 84-1, raised against rhVim with 6-His; It was detected with anti-mouse IgG; also called 84-1 mAb; 84-1 antibody
As for B1, the binding result in experiment [1], in experiment [2], in experiment [3] and in experiment [4] was “binds” in each case. Besides, the spot intensity relative to antibody 12-1 in experiment [5] was found to be 2 fold.
